Test results: article PMC6787082, “The cell cycle-regulated DNA adenine methyltransferase CcrM opens a bubble at its DNA recognition site”

B1: Hemimethylated GAATC duplex (dsDNA)
DNA 1: CGATTCAATGAATCCCAAG
DNA 2: GCTTGGGATTCATTGAATC
modifications: N6-methyladenine (printed M) at position 8 of strand 2 (GATTC, non-target strand)
B2: GAATC 18-bp duplex with 1-nt overhangs (dsDNA)
DNA 1: CGATTCAATGAATCCCAAG
DNA 2: GCTTGGGATTCATTGAATC

Key:
CcrM [1] = biological target: T1, CcrM (Caulobacter crescentus, UniProt P0CAW2 1-358); test: X-ray crystallography (2.7 A); sinefungin; Co-crystallization: protein stock in 20 mM HEPES pH 8.0, 300 mM NaCl, 5% glycerol, 0.5 mM TCEP; ~1:1 monomer:duplex (~56 uM), 5x sinefungin; well 0.1 M HEPES pH 7.8, 10% PEG 8000, 3% PEG 6000; 19 C; conditions: protein: recombinant; tags: N-terminal His-tag; chain copies: 2; 5' overhang 1 nt on each strand, 18 bp
CcrM [2] = biological target: T1, CcrM; test: X-ray crystallography (2.34 A); sinefungin; Co-crystallization: protein stock in 20 mM HEPES pH 8.0, 300 mM NaCl, 5% glycerol, 0.5 mM TCEP; ~1:1 monomer:duplex (~56 uM), 5x sinefungin; well 0.1 M HEPES pH 7.8, 10% PEG 8000, 3% PEG 6000; 19 C; conditions: protein: recombinant; tags: N-terminal His-tag; chain copies: 2; 5' overhang 1 nt on each strand (C and G), 18 bp

T1 sequence (P0CAW2 whole entry): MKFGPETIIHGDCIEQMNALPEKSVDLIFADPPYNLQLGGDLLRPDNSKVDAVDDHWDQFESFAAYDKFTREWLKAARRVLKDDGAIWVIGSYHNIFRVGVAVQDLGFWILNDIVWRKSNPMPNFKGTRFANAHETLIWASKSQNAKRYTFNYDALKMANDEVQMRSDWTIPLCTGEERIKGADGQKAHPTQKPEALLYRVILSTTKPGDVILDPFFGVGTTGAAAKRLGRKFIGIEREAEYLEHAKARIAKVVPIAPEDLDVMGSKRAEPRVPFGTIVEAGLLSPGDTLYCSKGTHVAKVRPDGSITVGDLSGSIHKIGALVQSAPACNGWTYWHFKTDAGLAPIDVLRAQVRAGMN

Binder	binding result (CcrM [1])	binding result (CcrM [2])
B1	binds	
B2		binds
